The test system of this data set is double knockout E. coli (EPSPS defective E. coli, EDCE). Description: growth of EPSPS defective E. coli transformed by the EPSPS gene in M9 culture media containing different glyphosate concentrations. Format: cell-based, E. coli DH5α. The conditions noted are these: for EPSPS enzyme activity: concluded from growth of defective E. coli at 0 mM glyphosate. From the text:
A method for detecting the glyphosate resistance of the soybean EPSPS mutant G1 provided in Example 1 and the soybean EPSPS mutant G3 provided in Example 2 is as follows:
according to the sequence of the nucleic acid molecule provided in the example, synthesizing the encoding gene that encodes the soybean EPSPS mutant G1 or G3 using a chemical synthesis method, introducing enzyme sites (Pac1 and Sbf1) at two ends thereof, connecting to an expression vector (for example, a pADV5 vector, the structure of which is as shown in FIG. 15) that has undergone the same restriction enzyme digestion treatment under the action of ligase after restriction enzyme digestion, then transforming double knockout E. coli, picking positive colonies after verification, inoculating the positive colonies to M9 culture media containing different glyphosate concentrations for growth, and observing the growth situation of the E. coli.
The wild-type soybean EPSPS (with an amino acid sequence represented by SEQ ID NO: 2 and an encoding gene sequence represented by SEQ ID NO: 1) and the soybean EPSPS mutant G2 (with an amino acid sequence represented by SEQ ID NO: 6, and a corresponding encoding gene sequence represented by SEQ ID NO: 5) merely containing the mutation P114(101)S were taken as controls.
In the above, the M9 basal culture medium can be prepared by the following method:
5×M9 salt solution: 6.78 g of Na2HPO4, 3.0 g of KH2PO4, 0.5 g of NaCl, and 1.0 g of NH4Cl were weighed, added with ddH2O to 200 ml, and subjected to high-temperature and high-pressure sterilization treatment;
20% glucose: 20 g of glucose was weighed, added with 80 ml of ddH2O for dissolving, diluted to 100 ml, and subjected to filtration and sterilization treatment;
1.0 M MgSO4: 24.6 g of MgSO4-7H2O was weighed, dissolved with 80 ml of ddH2O, diluted to 100 ml, and subjected to sterilization treatment;
1.0 M CaCl2: 11.1 g of CaCl2 was weighed, dissolved with 80 ml of ddH2O, diluted to 100 ml, and subjected to sterilization treatment; and
1000 ml of the M9 basal culture media were prepared by adding ddH2O to 200 ml of 5×M9 salt solution, 20 ml of 20% glucose, 2 ml of 1.0 M MgSO4 and 0.1 ml of 1.0 M CaCl2 to make up to 1000 ml.
In the above, the E. coli used was double knockout E. coli, namely, EPSPS defective E. coli (E. coli DH5α with EPSPS gene and C-P Lyase gene being knocked out, named as EDCE, wherein for a preparation method thereof, reference can be made to a Chinese invention patent with the filing number CN2016103256926).
The glyphosate resistance of the soybean EPSPS mutant G4 provided in Example 3 and the soybean EPSPS mutant G5 provided in Example 4 was verified with reference to the detection method in Experiment Example 1.
The wild-type wheat EPSPS (with an amino acid sequence represented by SEQ ID NO: 14, and a corresponding encoding gene sequence represented by SEQ ID NO: 13) and the wheat EPSPS mutant T2 (with an amino acid sequence represented by SEQ ID NO: 18, and a corresponding encoding gene sequence represented by SEQ ID NO: 17) merely containing the mutation P118(101)S were taken as controls to verify the glyphosate resistance of the wheat EPSPS mutants T1 and T3 provided in Example 5 and Example 6, and reference can be made to Experiment Example 1 for the method.
A method for verifying the glyphosate resistance of the wheat EPSPS mutants T4, T5, and T6 provided in Examples 7-9 is the same as that in Experiment Example 3.
The wild-type rice EPSPS R0 (with an amino acid sequence represented by SEQ ID NO: 28, and a corresponding encoding gene sequence represented by SEQ ID NO: 27) and the rice EPSPS mutant R2 (with an amino acid sequence represented by SEQ ID NO: 32, and a corresponding encoding gene sequence represented by SEQ ID NO: 31) merely containing the mutation P116(101)S were taken as controls to verify the glyphosate resistance of the rice EPSPS mutants R1 and R3 provided in Examples 10 and 11, and reference can be made to Experiment Example 1 for the method. […]

Setting [1] is: culture media containing 0 mM glyphosate.
[2] abbreviates: culture media containing 10 mM glyphosate.
Where [3] appears, read: culture media containing 20 mM glyphosate.

B1: R2: rice EPSPS mutant, SEQ ID NO: 32, merely containing the mutation P116(101)S; control (protein)
chain: MASNAAAAAAKAEEIVLQPIREISGAVQLPGSKSLSNRILLLSALSEGTTVVDNLLNSEDVHYMLEALKALGLSVEADKVAKRAVVVGCGGKFPVEKDAKEEVQLFLGNAGTAMRSLTAAVTAAGGNATYVLDGVPRMRERPIGDLVVGLKQLGADVDCFLGTECPPVRVKGIGGLPGGKVKLSGSISSQYLSALLMAAPLALGDVEIEIIDKLISIPYVEMTLRLMERFGVKAEHSDSWDRFYIKGGQKYKSPGNAYVEGDASSASYFLAGAAITGGTVTVQGCGTTSLQGDVKFAEVLEMMGAKVTWTDTSVTVTGPPREPYGKKHLKAVDVNMNKMPDVAMTLAVVALFADGPTAIRDVASWRVKETERMVAIRTELTKLGASVEEGPDYCIITPPEKLNITAIDTYDDHRMAMAFSLAACADVPVTIRDPGCTRKTFPNYFDVLSTFVRN
As for B1, the EPSPS enzyme activity result was “normal EPSPS enzyme activity”. Under setting [1], the “growth of the E. coli transformed by the EPSPS” value (from here on “growth … by the EPSPS”) is given as “could grow”. The “growth … by the EPSPS” value under setting [2] is “could grow”. For the same molecule, under setting [3], the “growth … by the EPSPS” value is recorded as “could grow”.

B2: R5: rice EPSPS mutant, SEQ ID NO: 38, mutations S267(247)G and P116(101)S (protein)
chain: MASNAAAAAAKAEEIVLQPIREISGAVQLPGSKSLSNRILLLSALSEGTTVVDNLLNSEDVHYMLEALKALGLSVEADKVAKRAVVVGCGGKFPVEKDAKEEVQLFLGNAGTAMRSLTAAVTAAGGNATYVLDGVPRMRERPIGDLVVGLKQLGADVDCFLGTECPPVRVKGIGGLPGGKVKLSGSISSQYLSALLMAAPLALGDVEIEIIDKLISIPYVEMTLRLMERFGVKAEHSDSWDRFYIKGGQKYKSPGNAYVEGDASSAGYFLAGAAITGGTVTVQGCGTTSLQGDVKFAEVLEMMGAKVTWTDTSVTVTGPPREPYGKKHLKAVDVNMNKMPDVAMTLAVVALFADGPTAIRDVASWRVKETERMVAIRTELTKLGASVEEGPDYCIITPPEKLNITAIDTYDDHRMAMAFSLAACADVPVTIRDPGCTRKTFPNYFDVLSTFVRN
Regarding B2, the EPSPS enzyme activity result is “normal EPSPS enzyme activity”. Further, under setting [1], the “growth … by the EPSPS” value is listed as “could grow”. Further, under setting [3], the “growth … by the EPSPS” value was “could grow” and the “growth of the transformed E. coli compared with E. coli transformed by the control EPSPS named in the value” is on record as “obviously superior to that of the E. coli transformed by R2”.

B3: R6: rice EPSPS mutant, SEQ ID NO: 40, mutations S267(247)G, L214(195)P and P116(101)S (protein)
chain: MASNAAAAAAKAEEIVLQPIREISGAVQLPGSKSLSNRILLLSALSEGTTVVDNLLNSEDVHYMLEALKALGLSVEADKVAKRAVVVGCGGKFPVEKDAKEEVQLFLGNAGTAMRSLTAAVTAAGGNATYVLDGVPRMRERPIGDLVVGLKQLGADVDCFLGTECPPVRVKGIGGLPGGKVKLSGSISSQYLSALLMAAPLALGDVEIEIIDKPISIPYVEMTLRLMERFGVKAEHSDSWDRFYIKGGQKYKSPGNAYVEGDASSAGYFLAGAAITGGTVTVQGCGTTSLQGDVKFAEVLEMMGAKVTWTDTSVTVTGPPREPYGKKHLKAVDVNMNKMPDVAMTLAVVALFADGPTAIRDVASWRVKETERMVAIRTELTKLGASVEEGPDYCIITPPEKLNITAIDTYDDHRMAMAFSLAACADVPVTIRDPGCTRKTFPNYFDVLSTFVRN
As for B3, the EPSPS enzyme activity result is reported as “normal EPSPS enzyme activity”. Further, the “growth … by the EPSPS” value under setting [1] is “could grow”. Under setting [3], the “growth … by the EPSPS” value is given as “could grow” and the “growth of the transformed E. coli compared with E. coli transformed by the control EPSPS named in the value” is given as “superior to that of the E. coli transformed by R2”.

B4: R4: rice EPSPS mutant, SEQ ID NO: 36, mutation S267(247)G (protein)
chain: MASNAAAAAAKAEEIVLQPIREISGAVQLPGSKSLSNRILLLSALSEGTTVVDNLLNSEDVHYMLEALKALGLSVEADKVAKRAVVVGCGGKFPVEKDAKEEVQLFLGNAGTAMRPLTAAVTAAGGNATYVLDGVPRMRERPIGDLVVGLKQLGADVDCFLGTECPPVRVKGIGGLPGGKVKLSGSISSQYLSALLMAAPLALGDVEIEIIDKLISIPYVEMTLRLMERFGVKAEHSDSWDRFYIKGGQKYKSPGNAYVEGDASSAGYFLAGAAITGGTVTVQGCGTTSLQGDVKFAEVLEMMGAKVTWTDTSVTVTGPPREPYGKKHLKAVDVNMNKMPDVAMTLAVVALFADGPTAIRDVASWRVKETERMVAIRTELTKLGASVEEGPDYCIITPPEKLNITAIDTYDDHRMAMAFSLAACADVPVTIRDPGCTRKTFPNYFDVLSTFVRN
Take B4: the EPSPS enzyme activity entry is “normal EPSPS enzyme activity”. In addition, the “growth … by the EPSPS” value under setting [1] is recorded as “could grow”. Also, under setting [2], the “growth … by the EPSPS” value was “could grow normally” and the “growth of the transformed E. coli compared with E. coli transformed by the control EPSPS named in the value” is recorded as “superior to that of the E. coli transformed by R1”. In addition, the “growth … by the EPSPS” value under setting [3] is listed as “grew obviously”.

B5: R3: rice EPSPS mutant, SEQ ID NO: 34, mutations L214(195)P and P116(101)S (protein)
chain: MASNAAAAAAKAEEIVLQPIREISGAVQLPGSKSLSNRILLLSALSEGTTVVDNLLNSEDVHYMLEALKALGLSVEADKVAKRAVVVGCGGKFPVEKDAKEEVQLFLGNAGTAMRSLTAAVTAAGGNATYVLDGVPRMRERPIGDLVVGLKQLGADVDCFLGTECPPVRVKGIGGLPGGKVKLSGSISSQYLSALLMAAPLALGDVEIEIIDKPISIPYVEMTLRLMERFGVKAEHSDSWDRFYIKGGQKYKSPGNAYVEGDASSASYFLAGAAITGGTVTVQGCGTTSLQGDVKFAEVLEMMGAKVTWTDTSVTVTGPPREPYGKKHLKAVDVNMNKMPDVAMTLAVVALFADGPTAIRDVASWRVKETERMVAIRTELTKLGASVEEGPDYCIITPPEKLNITAIDTYDDHRMAMAFSLAACADVPVTIRDPGCTRKTFPNYFDVLSTFVRN
For the molecule B5, the EPSPS enzyme activity entry is recorded as “normal EPSPS enzyme activity”. The “growth … by the EPSPS” value under setting [1] was “could grow”. Also, under setting [2], the “growth … by the EPSPS” value was “could grow” and the “growth of the transformed E. coli compared with E. coli transformed by the control EPSPS named in the value” is recorded as “superior to that of the E. coli transformed by R2”.

Source of the values: patent US11584938B2, “Plant EPSPS mutant containing L195P and S247G mutations and encoding gene and use thereof” (GEVOTO LLC, priority 2017, dated 2023).
